B1: Ab (52-3) (antibody, V domains shown)
VH: QVQLQQPGAELVKPGASVKLSCKASGYTFTSYWMHWVKQRPGQGLEWIGEINPSNGRTNYNEKFKSKATLTVDKSSSTAYMQLSSLTSEDSAVYYCARSRYYGSCYFDYWGQGTTLTVSS
VL: KIVMTQAAFSNPVTLGTSASISCRSSKSLLYSNGITYLYWYLQKPGQSPQLLIYQMSNLASGVPDRFSSSGSGTDFTLRISRVEAEDVGVYYCAQNLELPWTFGGGTKLEIK
B2: anti-mortalin monoclonal antibody 52-3 (antibody, V domains shown)
VH: B1 VH
VL: B1 VL

Legend:
Δmot #4 403-679 = assay: BIACORE
[1] = biological target: full-length mortalin with an His tag (recombinant, expressed in Escherichia coli); assay: BIACORE

| Binder | Kd (Δmot #4 403-679) [nM] | Kd [1] [nM] |
| --- | --- | --- |
| B1 | 4.61 | – |
| B2 | – | 8.17 |
